Data from the supplement of paper PMC9112550, “Optimization of the antimicrobial peptide Bac7 by deep mutational scanning” (BMC Biology, 2022).

Test system: Escherichia coli TOP10
Experiment: shrunken log2 fold change of peptide-encoding DNA abundance (4.5 h post-induction vs induction); higher = less antimicrobial activity (less host growth inhibition)
Conditions: time post-induction: 4.5 h; library: site-saturation at positions 5, 18, 19, 20
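Also: peptides expressed intracellularly from a pBAD plasmid library in pooled LB shake-flask culture, induced with 0.3% L-arabinose, DNA abundance read by NGS, three biological replicates, DESeq2 with apeglm shrinkage.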

Sequence	shrunken log2 fold change
RRIRQRPPRLPRPRPRPKWKPRP	-0.0193
RRIRQRPPRLPRPRPRPKYMPRP	-0.386
RRIRQRPPRLPRPRPRPLDWPRP	0.099
RRIRQRPPRLPRPRPRPLEAPRP	0.225
RRIRQRPPRLPRPRPRPLEKPRP	-0.0015
RRIRQRPPRLPRPRPRPLEPPRP	-0.227
RRIRQRPPRLPRPRPRPLFNPRP	-0.367
RRIRQRPPRLPRPRPRPLFQPRP	0.866
RRIRQRPPRLPRPRPRPLGQPRP	0.125
RRIRQRPPRLPRPRPRPLHSPRP	-0.295
RRIRQRPPRLPRPRPRPLIIPRP	-0.781
RRIRQRPPRLPRPRPRPLKGPRP	-0.272
RRIRQRPPRLPRPRPRPLKYPRP	-0.0559
RRIRQRPPRLPRPRPRPLLNPRP	-0.29
RRIRQRPPRLPRPRPRPLMHPRP	-0.00724
RRIRQRPPRLPRPRPRPLNEPRP	-0.136
RRIRQRPPRLPRPRPRPLNKPRP	-0.503
RRIRQRPPRLPRPRPRPLNMPRP	-0.423
RRIRQRPPRLPRPRPRPLPDPRP	0.0466
RRIRQRPPRLPRPRPRPLPLPRP	-0.287
RRIRQRPPRLPRPRPRPLTFPRP	-0.0576
RRIRQRPPRLPRPRPRPLTMPRP	0.00947
RRIRQRPPRLPRPRPRPLVEPRP	-0.0628
RRIRQRPPRLPRPRPRPLVTPRP	-0.122
RRIRQRPPRLPRPRPRPLVYPRP	-0.737

Sequence	shrunken log2 fold change
RRIRQRPPRLPRPRPRPLWNPRP	-0.245
RRIRQRPPRLPRPRPRPLYMPRP	-0.198
RRIRQRPPRLPRPRPRPLYSPRP	-0.649
RRIRQRPPRLPRPRPRPMAGPRP	0.132
RRIRQRPPRLPRPRPRPMATPRP	0.0329
RRIRQRPPRLPRPRPRPMCCPRP	0.0301
RRIRQRPPRLPRPRPRPMCDPRP	0.00628
RRIRQRPPRLPRPRPRPMCHPRP	-0.136
RRIRQRPPRLPRPRPRPMFIPRP	-0.129
RRIRQRPPRLPRPRPRPMFQPRP	-0.467
RRIRQRPPRLPRPRPRPMFSPRP	0.0442
RRIRQRPPRLPRPRPRPMGYPRP	-0.655
RRIRQRPPRLPRPRPRPMIFPRP	-0.0627
RRIRQRPPRLPRPRPRPMIIPRP	0.0698
RRIRQRPPRLPRPRPRPMLFPRP	-0.0627
RRIRQRPPRLPRPRPRPMLSPRP	-0.0514
RRIRQRPPRLPRPRPRPMLTPRP	-0.185
RRIRQRPPRLPRPRPRPMNGPRP	-0.0825
RRIRQRPPRLPRPRPRPMNNPRP	-0.2
RRIRQRPPRLPRPRPRPMNRPRP	-0.275
RRIRQRPPRLPRPRPRPMPCPRP	-0.00136
RRIRQRPPRLPRPRPRPMPNPRP	-0.215
RRIRQRPPRLPRPRPRPMQQPRP	-0.0642
RRIRQRPPRLPRPRPRPMQVPRP	-0.0356
RRIRQRPPRLPRPRPRPMRLPRP	0.0296

Sequence	shrunken log2 fold change
RRIRQRPPRLPRPRPRPMRQPRP	-0.0137
RRIRQRPPRLPRPRPRPMRRPRP	0.225
RRIRQRPPRLPRPRPRPMTAPRP	0.291
RRIRQRPPRLPRPRPRPMTSPRP	-0.000946
RRIRQRPPRLPRPRPRPMTTPRP	3.23
RRIRQRPPRLPRPRPRPMYRPRP	0.0341
RRIRQRPPRLPRPRPRPNDLPRP	-0.0128
RRIRQRPPRLPRPRPRPNEGPRP	-0.07
RRIRQRPPRLPRPRPRPNFLPRP	-0.492
RRIRQRPPRLPRPRPRPNFRPRP	-0.0457
RRIRQRPPRLPRPRPRPNHLPRP	-1.03
RRIRQRPPRLPRPRPRPNHTPRP	-0.0975
RRIRQRPPRLPRPRPRPNIAPRP	-0.0856
RRIRQRPPRLPRPRPRPNIMPRP	-0.462
RRIRQRPPRLPRPRPRPNKGPRP	-0.0896
RRIRQRPPRLPRPRPRPNLDPRP	0.0163
RRIRQRPPRLPRPRPRPNLSPRP	-0.258
RRIRQRPPRLPRPRPRPNNVPRP	-0.149
RRIRQRPPRLPRPRPRPNPWPRP	0.0932
RRIRQRPPRLPRPRPRPNQLPRP	-0.499
RRIRQRPPRLPRPRPRPNRLPRP	0.0179
RRIRQRPPRLPRPRPRPNRTPRP	0.0639
RRIRQRPPRLPRPRPRPNRYPRP	-0.0216
RRIRQRPPRLPRPRPRPNSFPRP	0.151
RRIRQRPPRLPRPRPRPNSWPRP	0.0283

Sequence	shrunken log2 fold change
RRIRQRPPRLPRPRPRPNWQPRP	-0.0119
RRIRQRPPRLPRPRPRPNYDPRP	-0.257
RRIRQRPPRLPRPRPRPNYTPRP	-0.207
RRIRQRPPRLPRPRPRPPAVPRP	0.408
RRIRQRPPRLPRPRPRPPCVPRP	0.214
RRIRQRPPRLPRPRPRPPDAPRP	0.228
RRIRQRPPRLPRPRPRPPETPRP	0.00852
RRIRQRPPRLPRPRPRPPFAPRP	0.742
RRIRQRPPRLPRPRPRPPFEPRP	0.333
RRIRQRPPRLPRPRPRPPFLPRP	0.186
RRIRQRPPRLPRPRPRPPFWPRP	0.504
RRIRQRPPRLPRPRPRPPGKPRP	0.0921
RRIRQRPPRLPRPRPRPPGMPRP	0.256
RRIRQRPPRLPRPRPRPPHAPRP	0.322
RRIRQRPPRLPRPRPRPPHQPRP	0.363
RRIRQRPPRLPRPRPRPPHRPRP	0.445
RRIRQRPPRLPRPRPRPPHTPRP	1.08
RRIRQRPPRLPRPRPRPPICPRP	0.0388
RRIRQRPPRLPRPRPRPPIHPRP	-0.0767
RRIRQRPPRLPRPRPRPPIPPRP	-0.0174
RRIRQRPPRLPRPRPRPPKLPRP	0.202
RRIRQRPPRLPRPRPRPPLAPRP	0.691
RRIRQRPPRLPRPRPRPPLVPRP	0.931
RRIRQRPPRLPRPRPRPPMHPRP	0.277
RRIRQRPPRLPRPRPRPPMSPRP	-0.139

Sequence	shrunken log2 fold change
RRIRQRPPRLPRPRPRPPQMPRP	-0.089
RRIRQRPPRLPRPRPRPPQSPRP	0.671
RRIRQRPPRLPRPRPRPPRSPRP	0.601
RRIRQRPPRLPRPRPRPPSDPRP	1.18
RRIRQRPPRLPRPRPRPPSGPRP	0.352
RRIRQRPPRLPRPRPRPPSKPRP	0.353
RRIRQRPPRLPRPRPRPPTMPRP	0.29
RRIRQRPPRLPRPRPRPPVCPRP	-0.0828
RRIRQRPPRLPRPRPRPPYWPRP	0.0656
RRIRQRPPRLPRPRPRPQAHPRP	-0.23
RRIRQRPPRLPRPRPRPQCVPRP	-0.0168
RRIRQRPPRLPRPRPRPQEAPRP	0.0238
RRIRQRPPRLPRPRPRPQEIPRP	0.0292
RRIRQRPPRLPRPRPRPQFCPRP	-0.142
RRIRQRPPRLPRPRPRPQGQPRP	0.254
RRIRQRPPRLPRPRPRPQILPRP	-0.132
RRIRQRPPRLPRPRPRPQITPRP	-0.337
RRIRQRPPRLPRPRPRPQLHPRP	-0.237
RRIRQRPPRLPRPRPRPQLWPRP	-0.135
RRIRQRPPRLPRPRPRPQMFPRP	0.00489
RRIRQRPPRLPRPRPRPQMHPRP	-0.168
RRIRQRPPRLPRPRPRPQNYPRP	0.0103
RRIRQRPPRLPRPRPRPQPCPRP	0.149
RRIRQRPPRLPRPRPRPQPNPRP	0.26
RRIRQRPPRLPRPRPRPQPRPRP	0.48

Sequence	shrunken log2 fold change
RRIRQRPPRLPRPRPRPQQKPRP	-0.023
RRIRQRPPRLPRPRPRPQQTPRP	0.178
RRIRQRPPRLPRPRPRPQRGPRP	0.235
RRIRQRPPRLPRPRPRPQSRPRP	0.00465
RRIRQRPPRLPRPRPRPQVKPRP	-0.101
RRIRQRPPRLPRPRPRPQVRPRP	-0.276
RRIRQRPPRLPRPRPRPQWPPRP	0.239
RRIRQRPPRLPRPRPRPQYAPRP	-0.176
RRIRQRPPRLPRPRPRPQYLPRP	-0.131
RRIRQRPPRLPRPRPRPQYTPRP	-0.249
RRIRQRPPRLPRPRPRPRACPRP	0.344
RRIRQRPPRLPRPRPRPRCVPRP	1.47
RRIRQRPPRLPRPRPRPRDLPRP	0.412
RRIRQRPPRLPRPRPRPRFNPRP	-0.244
RRIRQRPPRLPRPRPRPRGPPRP	0.0418
RRIRQRPPRLPRPRPRPRHHPRP	0.0815
RRIRQRPPRLPRPRPRPRIHPRP	-0.234
RRIRQRPPRLPRPRPRPRKNPRP	0.309
RRIRQRPPRLPRPRPRPRLEPRP	0.109
RRIRQRPPRLPRPRPRPRLLPRP	0.0504
RRIRQRPPRLPRPRPRPRPPPRP	1.08
RRIRQRPPRLPRPRPRPRRFPRP	0.222
RRIRQRPPRLPRPRPRPRRLPRP	0.752
RRIRQRPPRLPRPRPRPRRNPRP	0.327
RRIRQRPPRLPRPRPRPRWIPRP	0.274
